We go through ten molecules from patent US20180057604A1 (Genentech, published 2018).

Where only a bound is given, the exact number is not on record here.

The target of assay [1] is T1, BACE1 in primary mouse cortical neurons (mouse, UniProt P56818 46-501). The assay is described as follows: cell-based or functional assay.
The target in assay [2] is T2, human BACE1 (R&D Systems) (human, UniProt P56817).
T2 construct: recombinant, commercial (R&D Systems)
As to the kind of experiment: SPR (Biacore). (Surface plasmon resonance follows binding to a sensor surface in real time, without labels.)
Procedure: Binding affinities of certain anti-BACE1 IgGs were measured by surface plasmon resonance (SRP) using a BIAcore™-T100 instrument. […] Association rates (kon) and dissociation rates (koff) were calculated using a simple one-to-one Langmuir binding model (BIAcore Evaluation Software version 3.2). The equilibrium dissociation constant (KD) was calculated as the ratio koff/kon.

For assay [3], the target named is T1, BACE1 in primary mouse cortical neurons. The assay is described as follows: cell-based or functional assay. This is another data set of the same source.
Assay [4] concerns the target T3, murine BACE1 ECD.
T3 construct: analyte of the Octet assay (200 nM) and enzyme of the first short substrate assay
The assay is described as follows: Octet, pH 7.5.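 Note: antibodies captured on anti-human capture sensor tips, dissociation monitored in PBS with BSA, Kd obtained from kinetic fit to a one-to-one binding model.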 On the technique in general: In BLI a coated tip is dipped into the sample, and binding shifts an interference pattern.
Procedure: (§1) Anti-BACE1 antibodies were loaded onto anti-human capture (AHC) sensors (tips) followed by 60 seconds baseline in assay buffer. […] Tips were transferred to assay buffer for 5 minutes, 30 minutes, or 120 minutes depending on the off-rate, for off-rate measurement. Assay buffer was either PBS+0.1% BSA, pH 7.5; or PBS+0.1% BSA, pH 5.0. Kinetics were analyzed using a 1:1 binding model.

Assay [5] has as its target T4, human BACE1 ECD.
T4 construct: analyte of the Octet assay (200 nM) and enzyme of the first short substrate assay; also called human BACE1 extracellular domain
As to the kind of experiment: Octet, pH 7.5.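 Note: antibodies captured on anti-human capture sensor tips, dissociation monitored in PBS with BSA, Kd obtained from kinetic fit to a one-to-one binding model.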
Procedure: as §1

The target of assay [6] is T3, murine BACE1 ECD. The assay is described as follows: Octet, pH 5.0.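 Note: antibodies captured on anti-human capture sensor tips, dissociation monitored in PBS with BSA buffer, kinetics fitted with a one-to-one binding model.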
Procedure: as §1
For assay [7], the target named is T4, human BACE1 ECD. The assay is described as follows: Octet, pH 5.0.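 Note: antibodies captured on anti-human capture sensor tips, dissociation monitored in PBS with BSA buffer, kinetics fitted with a one-to-one binding model.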
Procedure: as §1
The target of assay [8] is T5, human TfR extracellular domain with N-terminal His tag (human, UniProt P02786 89-760).
T5 construct: Biotinylated in some assays; also called huTfR; HuTfR
The assay is described as follows: ELISA.

Assay [9] addresses T6, human TfR, full length, on cells (human, UniProt P02786 1-760).
T6 construct: also called human TfR transiently expressed in 293 cells; TfR on HEL cells
As to the kind of experiment: FACS, 293 cells, 1 uM holo-Tf. (A flow cytometer gives signals particle by particle.)
Procedure: Briefly, FACS analysis was performed using 293 cells transfected with full length human or cyno TfR using lipofectamin 2000 plus (Invitrogen) 48-72 h before FACS analysis. […] Cells were washed twice with FACS buffer, 50 μl of PE-Goat-anti-murine Fcγ (Jackson ImmunoResearch) was added to cells and they were incubated on ice for 30 min. Cells were washed with FACS buffer and resuspended in 100 μl FACS buffer for analysis.

For assay [10], the target named is T5, human TfR extracellular domain with …. The assay is described as follows: ELISA, IgG.
Assay [11] concerns the target T7, cyno TfR extracellular domain (analogous construct to human TfR ecd) (cynomolgus monkey, UniProt Q5RDH6 87-760 (Pongo abelii entry)).
T7 construct: also called cynoTfR ecd
T7 chain: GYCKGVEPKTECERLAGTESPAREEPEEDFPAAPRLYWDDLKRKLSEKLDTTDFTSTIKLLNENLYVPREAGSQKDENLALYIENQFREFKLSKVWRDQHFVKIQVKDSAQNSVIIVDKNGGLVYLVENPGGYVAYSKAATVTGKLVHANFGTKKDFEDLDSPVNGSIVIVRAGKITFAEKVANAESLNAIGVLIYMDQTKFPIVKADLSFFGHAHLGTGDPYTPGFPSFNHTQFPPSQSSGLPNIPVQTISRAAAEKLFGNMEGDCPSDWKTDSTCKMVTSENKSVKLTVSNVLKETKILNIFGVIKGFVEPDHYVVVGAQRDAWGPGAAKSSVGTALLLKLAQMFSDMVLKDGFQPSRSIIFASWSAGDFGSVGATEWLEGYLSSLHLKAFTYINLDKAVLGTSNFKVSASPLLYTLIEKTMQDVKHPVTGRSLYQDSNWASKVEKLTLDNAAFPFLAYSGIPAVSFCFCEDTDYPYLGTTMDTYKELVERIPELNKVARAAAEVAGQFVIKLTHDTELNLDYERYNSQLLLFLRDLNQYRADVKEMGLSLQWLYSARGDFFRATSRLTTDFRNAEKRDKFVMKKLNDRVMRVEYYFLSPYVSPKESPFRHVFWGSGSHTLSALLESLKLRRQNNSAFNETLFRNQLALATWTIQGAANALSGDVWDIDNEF
As to the kind of experiment: ELISA, IgG.

Assay [12] concerns the target T5, human TfR extracellular domain with …. As to the kind of experiment: SPR steady state, IgG.
Procedure: (§2) Antibody affinities were measured using surface plasmon resonance (“SPR”) (Biacore™, GE Healthcare). Anti-His antibody (Qiagen) was coupled onto four different flow cells of a BIACORE™ CM5 sensor chip (Biacore, Inc., Piscataway, N.J.) at between 6000 and 8000 RU. Immobilization was achieved by random coupling through amino groups using a protocol provided by the manufacturer. 10×HBS-P (Biacore, Inc., Piscataway, N.J.) was diluted in water and served as the dilution and running buffer. Purified human or cyno TfR was captured, followed by a 3-fold dilution series of IgG or Fab that was injected at a flow rate of 30 ml/min using the single cycle kinetics method. Affinity constants were determined using a simple 1:1 Langmuir binding model or using a steady state model when kₒₙ or koff was beyond the detection limit. The equilibrium dissociation constant (KD) was calculated as the ratio of association rate constant (kₒₙ) and dissociation rate constant (koff).
(§3) These variants were screened as IgG by ELISA and SPR to identify positions important for binding to human and cyno TfR; the monovalent affinity of selected variants as Fab was also determined. […] Plates were washed with PBS/0.05% Tween 20 and blocked using Superblock blocking buffer in PBS (Thermo Scientific, Hudson, N.H.). Supernatants containing expressed IgG were diluted serially 1:5 and added to the plate for 1 h. […] Plates were washed with PBS/0.05% Tween 20 and 1:1000 diluted HRP-Goat-anti kappa (Southern Biotech) was added the plate and incubated for 1 h at room temperature. Plates were washed with PBS/0.05% Tween 20 and detected using TMB substrate (BioFX Laboratories, Owings Mills). Binding was also assessed by SPR, as described above.
Assay [13] concerns the target T7, cyno TfR extracellular domain …. The assay is described as follows: SPR steady state, IgG.
Procedure: as §2, §3
Assay [14] has as its target T5, human TfR extracellular domain with …. The assay is described as follows: SPR SCK 1:1 fit, IgG.
Procedure: as §2, §3
The target of assay [15] is T7, cyno TfR extracellular domain …. As to the kind of experiment: SPR SCK 1:1 fit, IgG.
Procedure: as §2, §3
Assay [16] has as its target T5, human TfR extracellular domain with …. The assay is described as follows: SPR, Fab.
Procedure: as §2, §3
Assay [17] deals with T7, cyno TfR extracellular domain …. The assay is described as follows: SPR, Fab.
Procedure: as §2, §3
The target of assay [18] is T5, human TfR extracellular domain with …. The assay is described as follows: SPR, TfR captured by anti-His, Fab injected.
Procedure: as §2
(§4) In both cases, the SPR experiments were performed as described above.
In assay [19] the target is T7, cyno TfR extracellular domain …. The assay is described as follows: SPR, TfR captured by anti-His, Fab injected.
Procedure: as §2, §4
Assay [20] has the same target. The assay is described as follows: SPR, KD on cyno TfR over KD on human TfR.
Procedure: as §2, §4

T1 sequence (P56818 46-501): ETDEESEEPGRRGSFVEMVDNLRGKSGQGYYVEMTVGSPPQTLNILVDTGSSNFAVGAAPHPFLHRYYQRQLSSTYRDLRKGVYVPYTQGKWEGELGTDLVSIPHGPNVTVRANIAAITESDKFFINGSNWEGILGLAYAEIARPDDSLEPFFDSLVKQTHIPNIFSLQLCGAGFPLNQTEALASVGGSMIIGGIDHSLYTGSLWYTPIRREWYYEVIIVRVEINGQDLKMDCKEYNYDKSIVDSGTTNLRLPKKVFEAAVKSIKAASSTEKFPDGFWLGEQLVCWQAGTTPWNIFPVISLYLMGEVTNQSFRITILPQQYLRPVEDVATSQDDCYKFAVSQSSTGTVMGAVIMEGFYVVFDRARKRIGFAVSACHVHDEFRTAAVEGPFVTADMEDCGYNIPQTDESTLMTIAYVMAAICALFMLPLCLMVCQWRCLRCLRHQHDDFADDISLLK
T5 sequence (P02786 89-760 G142S): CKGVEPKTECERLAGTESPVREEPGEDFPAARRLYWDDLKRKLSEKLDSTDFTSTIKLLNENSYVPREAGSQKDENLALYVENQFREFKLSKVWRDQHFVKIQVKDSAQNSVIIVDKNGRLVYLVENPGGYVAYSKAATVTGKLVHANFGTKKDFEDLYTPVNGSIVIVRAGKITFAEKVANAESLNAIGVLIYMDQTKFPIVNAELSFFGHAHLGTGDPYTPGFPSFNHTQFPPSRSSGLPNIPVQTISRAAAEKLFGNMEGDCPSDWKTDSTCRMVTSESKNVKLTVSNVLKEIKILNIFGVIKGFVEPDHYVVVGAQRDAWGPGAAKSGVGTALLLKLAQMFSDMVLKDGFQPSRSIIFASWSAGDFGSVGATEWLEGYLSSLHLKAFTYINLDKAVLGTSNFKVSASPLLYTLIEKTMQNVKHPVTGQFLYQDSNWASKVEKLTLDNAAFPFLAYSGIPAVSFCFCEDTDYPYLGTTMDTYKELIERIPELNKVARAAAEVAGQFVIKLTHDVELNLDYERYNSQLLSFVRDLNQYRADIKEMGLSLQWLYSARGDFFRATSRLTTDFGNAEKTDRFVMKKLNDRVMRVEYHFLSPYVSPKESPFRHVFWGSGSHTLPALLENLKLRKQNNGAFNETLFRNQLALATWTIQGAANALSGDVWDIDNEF
T4 sequence (single chain, as listed by the source limits assumed): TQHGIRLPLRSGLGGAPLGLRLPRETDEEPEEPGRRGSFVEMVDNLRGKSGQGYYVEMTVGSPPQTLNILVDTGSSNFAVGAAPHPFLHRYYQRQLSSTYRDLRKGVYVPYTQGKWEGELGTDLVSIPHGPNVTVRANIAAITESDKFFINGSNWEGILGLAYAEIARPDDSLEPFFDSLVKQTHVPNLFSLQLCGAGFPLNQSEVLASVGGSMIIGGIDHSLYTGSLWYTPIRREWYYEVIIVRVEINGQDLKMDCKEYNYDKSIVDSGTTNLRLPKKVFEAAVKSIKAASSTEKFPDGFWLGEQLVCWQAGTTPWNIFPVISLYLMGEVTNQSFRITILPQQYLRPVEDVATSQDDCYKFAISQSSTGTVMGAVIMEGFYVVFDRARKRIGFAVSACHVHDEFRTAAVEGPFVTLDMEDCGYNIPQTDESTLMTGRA
T3 sequence (single chain, as listed by the source limits assumed): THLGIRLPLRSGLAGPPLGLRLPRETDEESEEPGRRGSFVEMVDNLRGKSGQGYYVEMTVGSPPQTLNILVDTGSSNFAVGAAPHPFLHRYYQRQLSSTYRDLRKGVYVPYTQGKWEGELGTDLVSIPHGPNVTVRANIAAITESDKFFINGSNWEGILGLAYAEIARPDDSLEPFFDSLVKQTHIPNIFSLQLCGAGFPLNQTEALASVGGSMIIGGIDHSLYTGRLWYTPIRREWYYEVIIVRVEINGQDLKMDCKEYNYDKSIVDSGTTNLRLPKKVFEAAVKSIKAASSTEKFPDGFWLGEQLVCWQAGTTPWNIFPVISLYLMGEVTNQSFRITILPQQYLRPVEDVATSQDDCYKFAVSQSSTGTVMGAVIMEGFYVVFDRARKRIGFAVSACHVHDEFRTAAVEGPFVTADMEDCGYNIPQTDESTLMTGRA
T2 sequence (P56817 22-457 limits assumed): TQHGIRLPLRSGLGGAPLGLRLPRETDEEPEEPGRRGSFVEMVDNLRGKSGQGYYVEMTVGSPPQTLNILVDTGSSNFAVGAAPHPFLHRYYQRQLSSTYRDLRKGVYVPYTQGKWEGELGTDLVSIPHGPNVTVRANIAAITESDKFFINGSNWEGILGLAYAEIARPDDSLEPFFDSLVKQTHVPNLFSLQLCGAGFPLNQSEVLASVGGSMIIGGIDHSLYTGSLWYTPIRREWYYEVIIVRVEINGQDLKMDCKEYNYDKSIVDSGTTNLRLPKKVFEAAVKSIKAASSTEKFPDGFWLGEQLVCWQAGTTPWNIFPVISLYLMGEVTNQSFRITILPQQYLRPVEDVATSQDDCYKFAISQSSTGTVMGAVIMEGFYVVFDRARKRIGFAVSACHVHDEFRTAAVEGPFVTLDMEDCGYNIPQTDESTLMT

B1: anti-BACE1 antibody 6266 (antibody, V domains shown)
VH: EVQLVQSGAEVKKPGSSVKVSCKASGGTLSGYGVSWVRQAPGQGLEWMGNIIPGFGTANYAQKFQGRVTITADESTSTAYMELSSLRSEDTAVYYCARSGGTKYGMLDVWGQGTMVTVSS
VL: EIVMTQSPATLSVSPGERATLSCRASQSVSSNLAWYQQKPGQAPRLLIYGASTRATGIPARFSGSGSGTEFTLTISSLQSEDFAVYYCQQLILWPPRTFGGGTKVEIK
notes: Fully human antibody
Consider B1, for which the “IC50, inhibition of Abeta x-40 production in primary mouse cortical neurons” value in [1] came to 1.7 nM. Moreover, the Kd in [2] is 1.12 nM; in the assay with murine BACE1 ECD [4], below 0.31 nM; in the assay with human BACE1 ECD [5] it was below 0.3 nM; with murine BACE1 ECD [6] it was 0.32 nM; in the assay with human BACE1 ECD [7], below 0.24 nM. Also, the “IC50, Abeta x-40 in mouse cortical neurons” value in [3] was determined as 1.66 nM. For the same molecule, in assay [3], the “maximal % inhibition of Abeta x-40” value amounted to 87%.

B2: bispecific antibody TfR^2/6266 (bispecific antibody, V domains shown)
VH 1: EVQLVQSGAEVKKPGASVKVSCKASGYTFTSYWMHWVRQAPGQRLEWIGEINPTNGRTNYIEKFKSRATLTVDKSASTAYMELSSLRSEDTAVYYCARGTRAYHYWGQGTMVTVSS
VL 1: DIQMTQSPSSLSASVGDRVTITCRASDNLYSNLAWYQQKPGKSPKLLVYDATNLADGVPSRFSGSGSGTDYTLTISSLQPEDFATYYCQHFAGTPLTFGQGTKVEIK
VH 2: EVQLVQSGAEVKKPGSSVKVSCKASGGTLSGYGVSWVRQAPGQGLEWMGNIIPGFGTANYAQKFQGRVTITADESTSTAYMELSSLRSEDTAVYYCARSGGTKYGMLDVWGQGTMVTVSS
VL 2: EIVMTQSPATLSVSPGERATLSCRASQSVSSNLAWYQQKPGQAPRLLIYGASTRATGIPARFSGSGSGTEFTLTISSLQSEDFAVYYCQQLILWPPRTFGGGTKVEIK
In the case of B2, the “IC50, inhibition of Abeta x-40 production in primary mouse cortical neurons” value in assay [1] stood at 1.7 nM.

B3: 15D2 (antibody, V domains shown)
VH: QVQLQQSGPELVRPGVSVKISCKGSGYTVTDYAMHWVKQSHAKSLEWIGVISFYSGKTNYNQKFMGKATMTVDKSSSTAYMELARLTSEDSAIYYCARGLSGNYVMDYWGQGTSVTVSS
VL: DIVLTQSPASLAVSLGQRATISCRASESVDSYGNSFMHWYQQKPGQPPKLLIYRASNLESGIPARFSGSGSRTDFTLTINPVEADDVATYYCQQSNEGPPTFGGGTKLEIK
notes: Mouse hybridoma antibody; also called clone 15D2
On to B3, for which the binding result in assay [8] and in assay [9] was “binds” in each case.

B4: 4C2 (antibody, V domains shown)
VH: QVQLQQPGSELVRPGASVKLSCKASGYTFTSYWMHWVKQRHGQGLEWIGNIYPGSGSTKYDEKFKSKGTLTVDTSSSTAYMHLSSLTSEDSAVYYCTRGGYDSRAWFAHWGQGTLVTVSA
VL: DIVLTQSPASLAVSLGQRATISCRARQSVSTSSYSFMHWYQQKPGQPPKLLIKYASIQESGVPARFSGSGSGTDFTLNILPVEEEDTATYYCQHTWEIPFTFGSGTNLEIK
notes: Mouse hybridoma antibody; also called clone 4C2
On to B4, for which the binding result in [8] and in assay [9] was “binds” each time.

B5: G93A (antibody, V domains shown)
VH: EVQLVQSGAEVKKPGASVKVSCKASGYTFTSYWMHWVRQAPGQRLEWIGEINPTNGRTNYIEKFKSRATLTVDKSASTAYMELSSLRSEDTAVYYCARGTRAYHYWGQGTMVTVSS
VL: DIQMTQSPSSLSASVGDRVTITCRASDNLYSNLAWYQQKPGKSPKLLVYDATNLADGVPSRFSGSGSGTDYTLTISSLQPEDFATYYCQHFWATPLTFGQGTKVEIK
notes: also called 15G11.v5 G93A (CDR-L3) IgG
B5: the results for the EC50 in assay [10] and in assay [11] were 0.0145 µg/mL and 0.0508 µg/mL, respectively. For the same molecule, the Kd is 150 nM in [12], 412 nM in assay [13], 40 nM in assay [14] and 61 nM in assay [15].

B6: G93A (Fab, V domains shown)
VH: EVQLVQSGAEVKKPGASVKVSCKASGYTFTSYWMHWVRQAPGQRLEWIGEINPTNGRTNYIEKFKSRATLTVDKSASTAYMELSSLRSEDTAVYYCARGTRAYHYWGQGTMVTVSS
VL: DIQMTQSPSSLSASVGDRVTITCRASDNLYSNLAWYQQKPGKSPKLLVYDATNLADGVPSRFSGSGSGTDYTLTISSLQPEDFATYYCQHFWATPLTFGQGTKVEIK
notes: also called 15G11.v5 G93A (CDR-L3) Fab
For B6, the Kd turned out to be 245 nM in [16] and 1300 nM in assay [17].

B7: P95A (Fab, V domains shown)
VH: EVQLVQSGAEVKKPGASVKVSCKASGYTFTSYWMHWVRQAPGQRLEWIGEINPTNGRTNYIEKFKSRATLTVDKSASTAYMELSSLRSEDTAVYYCARGTRAYHYWGQGTMVTVSS
VL: DIQMTQSPSSLSASVGDRVTITCRASDNLYSNLAWYQQKPGKSPKLLVYDATNLADGVPSRFSGSGSGTDYTLTISSLQPEDFATYYCQHFWGTALTFGQGTKVEIK
notes: also called 15G11.v5 P95A (CDR-L3) Fab
Take B7: the results for the Kd in [16] and in [17] were 170 nM and 886 nM, respectively.

B8: Q89A (antibody, V domains shown)
VH: EVQLVQSGAEVKKPGASVKVSCKASGYTFTSYWMHWVRQAPGQRLEWIGEINPTNGRTNYIEKFKSRATLTVDKSASTAYMELSSLRSEDTAVYYCARGTRAYHYWGQGTMVTVSS
VL: DIQMTQSPSSLSASVGDRVTITCRASDNLYSNLAWYQQKPGKSPKLLVYDATNLADGVPSRFSGSGSGTDYTLTISSLQPEDFATYYCAHFWGTPLTFGQGTKVEIK
notes: also called 15G11.v5 Q89A (CDR-L3) IgG
Turning to B8, the EC50 amounted to 0.03 µg/mL in assay [10] and 0.506 µg/mL in assay [11]. The Kd in assay [12] was found to be 212 nM; in assay [13] it was 591 nM; in assay [14], 125 nM; in assay [15] it was 268 nM.

B9: P95A (antibody, V domains shown)
VH: EVQLVQSGAEVKKPGASVKVSCKASGYTFTSYWMHWVRQAPGQRLEWIGEINPTNGRTNYIEKFKSRATLTVDKSASTAYMELSSLRSEDTAVYYCARGTRAYHYWGQGTMVTVSS
VL: DIQMTQSPSSLSASVGDRVTITCRASDNLYSNLAWYQQKPGKSPKLLVYDATNLADGVPSRFSGSGSGTDYTLTISSLQPEDFATYYCQHFWGTALTFGQGTKVEIK
notes: also called 15G11.v5 P95A (CDR-L3) IgG
Consider B9, for which the EC50 in assay [10] came out at 0.0106 µg/mL; in assay [11], 0.0406 µg/mL. Further, the Kd in assay [12] was 94 nM; in assay [13], 258 nM; in assay [14], 29 nM; in assay [15], 57 nM.

B10: Hu15G11.HC53A Fab (Fab, V domains shown)
VH: EVQLVQSGAEVKKPGASVKVSCKASGYTFTSYWMHWVRQAPGQRLEWIGEINPANGRTNYIEKFKSRATLTVDKSASTAYMELSSLRSEDTAVYYCARGTRAYHYWGQGTMVTVSS
VL: DIQMTQSPSSLSASVGDRVTITCRASDNLYSNLAWYQQKPGKSPKLLVYDATNLADGVPSRFSGSGSGTDYTLTISSLQPEDFATYYCQHFWGTPLTFGQGTKVEIK
notes: Fab; also called 15G11.53A Fab
As for B10, in [18], the koff was determined as 0.0115 s⁻¹ and the kon is 890000 M⁻¹ s⁻¹. In [19], this molecule yielded a koff of 0.025 s⁻¹ and a kon of 484000 M⁻¹ s⁻¹. The Cy/hu ratio in assay [20] was found to be 4.

Broadly, the Kd is a measure of binding affinity in units of concentration. The low end stands for higher affinity, the high end for lower affinity. Broadly, the EC50 is the concentration giving half of the maximal effect. A higher EC50 goes with a need for much substance. Usually koff stands for the first-order rate constant of dissociation. High values mean a short-lived complex, low ones a long-lived complex. Usually kon stands for the second-order rate constant of association. Higher therefore signals faster complex formation.
